In PMC7397094:

Biological target: human recombinant RetGC1 (retinal membrane guanylyl cyclase 1) (human) (UniProt Q02846)
Sequence of UniProt Q02846 (Q02846 52-1103): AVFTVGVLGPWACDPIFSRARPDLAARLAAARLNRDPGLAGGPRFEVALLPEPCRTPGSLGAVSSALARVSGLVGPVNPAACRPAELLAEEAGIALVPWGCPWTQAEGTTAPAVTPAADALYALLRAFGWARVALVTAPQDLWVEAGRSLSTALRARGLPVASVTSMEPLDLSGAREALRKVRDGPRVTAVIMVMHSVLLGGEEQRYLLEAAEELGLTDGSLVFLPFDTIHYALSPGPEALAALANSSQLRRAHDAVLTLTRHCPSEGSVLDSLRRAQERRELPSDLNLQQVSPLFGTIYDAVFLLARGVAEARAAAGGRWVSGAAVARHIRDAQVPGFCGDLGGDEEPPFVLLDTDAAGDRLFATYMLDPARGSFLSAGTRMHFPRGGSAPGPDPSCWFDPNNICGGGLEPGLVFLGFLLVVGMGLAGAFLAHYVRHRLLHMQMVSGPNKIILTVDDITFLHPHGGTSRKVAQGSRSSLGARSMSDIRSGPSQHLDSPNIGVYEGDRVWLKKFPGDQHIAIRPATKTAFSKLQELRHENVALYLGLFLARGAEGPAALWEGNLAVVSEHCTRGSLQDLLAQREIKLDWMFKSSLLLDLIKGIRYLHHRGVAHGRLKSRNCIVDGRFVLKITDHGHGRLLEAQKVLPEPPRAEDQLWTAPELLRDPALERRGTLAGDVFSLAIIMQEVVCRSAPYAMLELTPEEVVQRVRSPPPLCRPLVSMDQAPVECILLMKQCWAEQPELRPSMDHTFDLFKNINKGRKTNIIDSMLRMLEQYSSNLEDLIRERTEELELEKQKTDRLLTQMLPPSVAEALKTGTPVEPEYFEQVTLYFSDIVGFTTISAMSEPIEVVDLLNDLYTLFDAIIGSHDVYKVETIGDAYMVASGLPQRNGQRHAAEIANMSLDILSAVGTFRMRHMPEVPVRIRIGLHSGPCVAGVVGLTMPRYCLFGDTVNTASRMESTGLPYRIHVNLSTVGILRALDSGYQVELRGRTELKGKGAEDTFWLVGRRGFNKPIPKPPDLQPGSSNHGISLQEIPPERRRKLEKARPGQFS

RetGC1 activity left with 100 nM RD3, % of that without RD3 (1.5 uM GCAP1) [%] | Substance
7.5 | RD3 154KTRAR158→154ENSES158 (from UniProt Q7Z3Z2 1-195) (natural protein)
6.4 | RD3 A22E (from UniProt Q7Z3Z2 1-195) (natural protein)
55 | RD3 I97Y (from UniProt Q7Z3Z2 1-195) (natural protein)
14.5 | RD3 R42E (from UniProt Q7Z3Z2 1-195) (natural protein)
5.5 | RD3 D72R (from UniProt Q7Z3Z2 1-195) (natural protein)
9.5 | RD3 164SDIRT168→164RSDTI168 (from UniProt Q7Z3Z2 1-195) (natural protein)
13.2 | RD3 H89G (from UniProt Q7Z3Z2 1-195) (natural protein)
17.7 | RD3 S61Y (from UniProt Q7Z3Z2 1-195) (natural protein)
7.5 | RD3 I76R (from UniProt Q7Z3Z2 1-195) (natural protein)
7.1 | RD3 V86R/K87A (from UniProt Q7Z3Z2 1-195) (natural protein)
12.1 | RD3 L103R (from UniProt Q7Z3Z2 1-195) (natural protein)
7.3 | RD3 T66K (from UniProt Q7Z3Z2 1-195) (natural protein)
10.7 | RD3 P75R (from UniProt Q7Z3Z2 1-195) (natural protein)
11.3 | RD3 P67G (from UniProt Q7Z3Z2 1-195) (natural protein)
15.4 | RD3 Y71G (from UniProt Q7Z3Z2 1-195) (natural protein)
12.6 | RD3 E41R (from UniProt Q7Z3Z2 1-195) (natural protein)
9.6 | RD3 147RGSL150→147GRLS150 (from UniProt Q7Z3Z2 1-195) (natural protein)
12.4 | RD3 R68D (from UniProt Q7Z3Z2 1-195) (natural protein)
9.9 | RD3 L98Y (from UniProt Q7Z3Z2 1-195) (natural protein)
2.5 | RD3 171EDVERD176→171KKAKQR176 (from UniProt Q7Z3Z2 1-195) (natural protein)
18.2 | RD3 R38S (from UniProt Q7Z3Z2 1-195) (natural protein)
7.3 | RD3 F153R (from UniProt Q7Z3Z2 1-195) (natural protein)
11 | RD3 P67D (from UniProt Q7Z3Z2 1-195) (natural protein)
7.1 | RD3 E108K (from UniProt Q7Z3Z2 1-195) (natural protein)

RetGC1 activity left with 100 nM RD3, % of that without RD3 (1.5 uM GCAP1) [%] | Substance
5.5 | RD3 G35Y (from UniProt Q7Z3Z2 1-195) (natural protein)
7.3 | RD3 L144W (from UniProt Q7Z3Z2 1-195) (natural protein)
24.2 | RD3 P90A (from UniProt Q7Z3Z2 1-195) (natural protein)
9 | RD3 S69Y (from UniProt Q7Z3Z2 1-195) (natural protein)
6.6 | RD3 E27R (from UniProt Q7Z3Z2 1-195) (natural protein)
6.6 | RD3 M31R (from UniProt Q7Z3Z2 1-195) (natural protein)
14.4 | RD3 A22Y (from UniProt Q7Z3Z2 1-195) (natural protein)
9.2 | RD3 R145D (from UniProt Q7Z3Z2 1-195) (natural protein)
9.6 | RD3 E110R (from UniProt Q7Z3Z2 1-195) (natural protein)
8.1 | RD3 T34Q (from UniProt Q7Z3Z2 1-195) (natural protein)
5.3 | RD3 Q43R (from UniProt Q7Z3Z2 1-195) (natural protein)
10.8 | RD3 Q116Y (from UniProt Q7Z3Z2 1-195) (natural protein)
7.9 | RD3 W142A (from UniProt Q7Z3Z2 1-195) (natural protein)
9.2 | RD3 Q112E/E113Q (from UniProt Q7Z3Z2 1-195) (natural protein)
15 | RD3 A64R (from UniProt Q7Z3Z2 1-195) (natural protein)
5.9 | RD3 L98R (from UniProt Q7Z3Z2 1-195) (natural protein)
11.5 | RD3 77ERLQ80→77QLRE80 (from UniProt Q7Z3Z2 1-195) (natural protein)
16.7 | RD3 V58Q (from UniProt Q7Z3Z2 1-195) (natural protein)
8.2 | RD3 T70R (from UniProt Q7Z3Z2 1-195) (natural protein)
10.1 | RD3 E127R/R128E (from UniProt Q7Z3Z2 1-195) (natural protein)
7.1 | RD3 A151R/T152Q (from UniProt Q7Z3Z2 1-195) (natural protein)
10.8 | RD3 S65Y (from UniProt Q7Z3Z2 1-195) (natural protein)
13.3 | RD3 S91Y (from UniProt Q7Z3Z2 1-195) (natural protein)
14.9 | RD3 T18D/R19A (from UniProt Q7Z3Z2 1-195) (natural protein)

RetGC1 activity left with 100 nM RD3, % of that without RD3 (1.5 uM GCAP1) [%] | Substance
9.1 | RD3 S143Y (from UniProt Q7Z3Z2 1-195) (natural protein)
3.9 | RD3 3L→S5 deletion (from UniProt Q7Z3Z2 1-195) (natural protein)
11.9 | RD3 Q123E/E124Q (from UniProt Q7Z3Z2 1-195) (natural protein)
12.4 | RD3 50AVRK53→50KAIE53 (from UniProt Q7Z3Z2 1-195) (natural protein)
15.3 | RD3 T28R (from UniProt Q7Z3Z2 1-195) (natural protein)
11.1 | RD3 W6L (from UniProt Q7Z3Z2 1-195) (natural protein)
10.3 | RD3 E41A (from UniProt Q7Z3Z2 1-195) (natural protein)
12.7 | RD3 186SMP188→186PRS188 (from UniProt Q7Z3Z2 1-195) (natural protein)
16.4 | RD3 Y71E (from UniProt Q7Z3Z2 1-195) (natural protein)
7.2 | RD3 D83R (from UniProt Q7Z3Z2 1-195) (natural protein)
17.9 | RD3 45RER47→45AAA47 (from UniProt Q7Z3Z2 1-195) (natural protein)
11.5 | RD3 S20Y/P21R (from UniProt Q7Z3Z2 1-195) (natural protein)
10.9 | RD3 M24D (from UniProt Q7Z3Z2 1-195) (natural protein)
9.1 | RD3 A135R (from UniProt Q7Z3Z2 1-195) (natural protein)
8.2 | RD3 S120Y (from UniProt Q7Z3Z2 1-195) (natural protein)
8.6 | RD3 137KLTRQ141→137QRKTL141 (from UniProt Q7Z3Z2 1-195) (natural protein)
6.9 | RD3 C55D (from UniProt Q7Z3Z2 1-195) (natural protein)
8.2 | RD3 E23R (from UniProt Q7Z3Z2 1-195) (natural protein)
6.6 | RD3 E39R (from UniProt Q7Z3Z2 1-195) (natural protein)
11.8 | RD3 132EEE134→132QQQ134 (from UniProt Q7Z3Z2 1-195) (natural protein)
12 | RD3 R119S (from UniProt Q7Z3Z2 1-195) (natural protein)
9.2 | RD3 T56H (from UniProt Q7Z3Z2 1-195) (natural protein)
8.5 | RD3 178PPP180→178AAA180 (from UniProt Q7Z3Z2 1-195) (natural protein)

Biological target: human recombinant RetGC1 (retinal membrane guanylyl cyclase 1) (human) (UniProt Q02846)
Remark: another data set of the same source

IC50 of inhibition of GCAP1-activated RetGC1 activity [µM] | Substance
4.46 | RD3 R101A/Q102L (from UniProt Q7Z3Z2 1-195) (natural protein)
0.0106 | RD3 H89G (from UniProt Q7Z3Z2 1-195) (natural protein)
0.0118 | RD3 S61Y (from UniProt Q7Z3Z2 1-195) (natural protein)
